Assay: label from the status in PepcDB records

| Sequence | protein production |
| --- | --- |
| MNLNEYKLLTFFNMKYKRKSKEEFLIKYQHDNTFRIMSLCLIILFLGVMSASVAHAESYKFVTKWGSYGNGAGQFHYPRAIVATSSGYIYVADSGNNRVQEFNSNGKFINQWSSTNDVSLGSVNGVAIDSSGDVYVADTNNRIVKFDKNGNFITKFGSYGSGNVQFKNARDICLDSSGNIYVADTGNNRIQKLDNNGNYLVQWGSYGSSNGQFKNPIDVALDSLDNVYVADKDNHCIKKFDSNGNYLMQFGNSGNGDGQFNNIISVFVDSSGNIYVSDRGNTRIQKFDSDGNYLTHWGSYGTNDGQFKNPEDIGVDSSGNVYVADADNNRIQKFAPVYPPVTNFVSNVTTGYAPLAVKFTDTSTGTPFSWTWNFGDGTFSTVKNPTHTYSKAGKYTVKLTATNEGGNSTAAKTNYITVKTTTVKPVAIFSASPTSGKAPLKVTFTDKSTGSPTKWKWNFGDGSKSFLQNPSHKYSKAGKYTVSLTVKNDKGSNTVTKTNYLTVVAKPVAAFSASPTSGKAPLKVTFTDKSTGSPTKWKWNFGDGTTSAKQNPIHKYSKAGKYKVTLTVANAAGINTVTKTNYITVIAKPAAAFSASPTSGKAPLKVTFSDKSTGTPTKWKWTFGDGSKSFLQNPTHKYSKAGKYKVILTVTNTAGSNTVTKTNYITVVAKPVAAFSASPTSGKAPLKVTFSDKSTGTPTKWKWNFGDGATSIKQNPVHKYSNVGSYTVKLTVTNAAGSNTKTISNYIILKSK | failed |
| MTRSSNIPADATPNPHATAEQVAAARHDSKLAQVLYHDWEAENYDEKWSISYDQRCVDYARGRFDAIVPDEVIAQLPYDRALELGCGTGFFLLNLIQAGVARRGSVTDLSPGMVKVATRNGQALGLDIDGRVADAEGIPYDDDAFDLVVGHAVLHHIPDVELSLREVVRVLKPGGRFVFAGEPTTVGDGYARTLSTLTWRVVTNATKLPGLRGWRRPQGELDESSRAAALEALVDLHTFTPQDLQRIAHNAGAVEVQTATEEFTAAMLGWPLRTFECTVPPGRLGWGWARFAFTSWKTLGWVDANVWRHVVPKGWFYNVMITGVKPS | failed |
| MNVLRPTLLTLACLLASPGFADDLPSLGDASSAIVSPQQEYQLGRAWLALLRSQVSQLNDPQLKDYVETSVYKLVETSQVNDRRLEFILINSPQLNAFAAPGGIIGVNGGLFLNAQTEGEYASVLAHELAHLSQRHFARGVEAQQRMQVPMMAALLAGIVIAAAGAGDAGIATIAGTQAAAIQEQRRFSRQNEQEADRIGILNLEKAGYDPRSMPTMFERLMRQYRFDAKPPEFLLTHPVTESRIADTRNRAEQARQGGTEDSLRYQLIRARVQLTYEESPGLAAKRFRAQLDENPKNDIARYGLAIAQIKGSQWNEARENLKPLLAKSPNDVTYNLAQIELDMANSRLPDAQTRVERMLNLYPGNYPLNQIRVDLLLKQNRPADAEKALEGLLKSRPDDPDVWYLVAETRGLSGNIIGLHQARAEYFALVGDYRQAIQQLDFAKRRAGSNFPLSSRIDARQREMMDQEQMVKDMMRLEHHHHHH | not failed |
| MTLSIAHLGPPGTYAEQAAVLYVNWLTKSTGDEATLSPYPTISQSLHAVADGQAHLAVVPVENSIEGSVTTTLDALWQLDSLRIQLALVLPIVHTLISCASGLDKIETVYSHPQALAQCQGWLERFLPTVQIVPSNSTTEALQRLEQETTTAAIASSRAAQLYNLPILATGINDYPENCTRFWVVSQGEADAGYQTSKVPTSHTSLAFSMPANTPGALVKPLQIFAQLGINLSRIESRPTKRSLGEYLFFMDLEADVKESQMQSALAELTIHTEILKILGAYNVLPIGAFT | failed |
| MENSRHNEFFLPLLLCIILPIIFMLTTNIKILRKTFSFILQNSFLQSFVTIFISIILEALPFIIIGVFLSSLIQVFISEETLSRIIPKNIVLGILSAATIGLIFPVCDCAIVPIVRRLLKKGLPLPIGITFMLSVPIINPVVLTSTYYAFLSNPHAPLIRAVAGWISAVLIGFIINKLDKSKTKQAKLHEILFNERVYMPKNNPIVTSNHNHEHHKCSCGHVHHEEEKFSALTLVHVLDHVSLELQDVGRFVIMGAFLSALMQTFIPRKYILSIGHGNISSIIVMMILAYVLCVCSETDAFIARTFVNQFTNGSIVAFLIFGPMIDIKNTLMLCETFNLKFVFKLVSIIIVVCFLIGLAFNFVKIPL | failed |
| MDKQTSPQEEIPELAVAVPQDAAALARALDLEAQTVSTWLTQGLGIVARVGSQIVGLAHLVDDGGHADVTDLALTTPDDADVVAALIGGAEQIATELESRVLVVSGLKASPGPAYHYNSGWVRVLPTRVVVPTAEAMHAFGAALAAQLRAGDIVLASGDLGAGKTTLAQGIGRGLGVDGPVISPTFVLARRHVGSEGRPGLVHVDAYRLGSAAELIDLDLDETMDQAVTLIEWGAGIAEDLGGSHLDVDIRRSGDPADETRVVYLEGFGPRWQDVDLSLLSELPLDTISPDQTGDNN | failed |

Source: a protein production outcome set (Wang et al. 2014)
